Assay results: the supplement of paper PMC9112550, “Optimization of the antimicrobial peptide Bac7 by deep mutational scanning” (BMC Biology, 2022)

Tested on: Escherichia coli TOP10
Assay: shrunken log2 fold change of peptide-encoding DNA abundance (4.5 h post-induction vs induction); higher = less antimicrobial activity (less host growth inhibition)
Conditions: time post-induction: 4.5 h; library: site-saturation at positions 5, 18, 19, 20
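Further: peptides expressed intracellularly from a pBAD plasmid library in pooled LB shake-flask culture, induced with 0.3% L-arabinose, DNA abundance read by NGS, three biological replicates, DESeq2 with apeglm shrinkage.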

Sequence | shrunken log2 fold change
RRIRVRPPRLPRPRPRPWSSPRP | -1.19
RRIRVRPPRLPRPRPRPKCDPRP | 0.0741
RRIRWRPPRLPRPRPRPVHQPRP | 0.194
RRIRRRPPRLPRPRPRPGDWPRP | 0.465
RRIRFRPPRLPRPRPRPVTHPRP | -0.303
RRIRFRPPRLPRPRPRPSDNPRP | -0.527
RRIRMRPPRLPRPRPRPMVYPRP | 0.0294
RRIRIRPPRLPRPRPRPDVEPRP | -0.054
RRIRWRPPRLPRPRPRPLFTPRP | -0.137
RRIRQRPPRLPRPRPRPANDPRP | -0.103
RRIRVRPPRLPRPRPRPAWEPRP | 0.162
RRIRYRPPRLPRPRPRPSSPPRP | -0.631
RRIRMRPPRLPRPRPRPCALPRP | 0.738
RRIRDRPPRLPRPRPRPHPIPRP | -0.152
RRIRIRPPRLPRPRPRPFWDPRP | -0.0885
RRIRKRPPRLPRPRPRPGHPPRP | 0.943
RRIRSRPPRLPRPRPRPYDCPRP | -0.0167
RRIRARPPRLPRPRPRPSHMPRP | -0.184
RRIRDRPPRLPRPRPRPSFLPRP | -0.197
RRIRKRPPRLPRPRPRPCTKPRP | 0.0518
RRIRERPPRLPRPRPRPHTKPRP | 0.0349
RRIRRRPPRLPRPRPRPKQLPRP | 0.148
RRIRPRPPRLPRPRPRPVPMPRP | 0.0911
RRIRLRPPRLPRPRPRPLKLPRP | -0.117
RRIRIRPPRLPRPRPRPNPQPRP | -0.287

Sequence | shrunken log2 fold change
RRIRVRPPRLPRPRPRPMMRPRP | 0.837
RRIRERPPRLPRPRPRPYHRPRP | 0.00148
RRIRSRPPRLPRPRPRPIIDPRP | -0.178
RRIRNRPPRLPRPRPRPTQAPRP | 0.24
RRIRCRPPRLPRPRPRPINYPRP | -0.271
RRIRLRPPRLPRPRPRPKVYPRP | -0.0494
RRIRVRPPRLPRPRPRPAGPPRP | 0.264
RRIRVRPPRLPRPRPRPTLNPRP | -0.102
RRIRKRPPRLPRPRPRPRRSPRP | 0.0846
RRIRYRPPRLPRPRPRPFSHPRP | -0.0363
RRIRTRPPRLPRPRPRPQENPRP | -0.165
RRIRKRPPRLPRPRPRPFGPPRP | 0.325
RRIRLRPPRLPRPRPRPTFGPRP | -0.0654
RRIRARPPRLPRPRPRPTLFPRP | 0.663
RRIRIRPPRLPRPRPRPPWCPRP | 1.45
RRIRYRPPRLPRPRPRPCIIPRP | -1.51
RRIRKRPPRLPRPRPRPNSVPRP | 0.0305
RRIRMRPPRLPRPRPRPWHDPRP | 0.162
RRIRTRPPRLPRPRPRPCIFPRP | -0.233
RRIRERPPRLPRPRPRPFSQPRP | -0.347
RRIRYRPPRLPRPRPRPKGQPRP | 0.0405
RRIRDRPPRLPRPRPRPPQIPRP | -0.179
RRIRCRPPRLPRPRPRPLECPRP | -0.354
RRIRVRPPRLPRPRPRPIDAPRP | -0.206
RRIRKRPPRLPRPRPRPCPEPRP | 0.196

Sequence | shrunken log2 fold change
RRIRFRPPRLPRPRPRPDYIPRP | 0.209
RRIRFRPPRLPRPRPRPMSLPRP | -0.142
RRIRTRPPRLPRPRPRPCGPPRP | -0.0329
RRIRWRPPRLPRPRPRPKHPPRP | 0.442
RRIRRRPPRLPRPRPRPYLGPRP | -0.276
RRIRRRPPRLPRPRPRPKTYPRP | -0.239
RRIRPRPPRLPRPRPRPWNTPRP | -0.0902
RRIRMRPPRLPRPRPRPWFGPRP | 0.134
RRIRTRPPRLPRPRPRPMRMPRP | 0.162
RRIRSRPPRLPRPRPRPMHNPRP | -0.179
RRIRHRPPRLPRPRPRPQLFPRP | -0.172
RRIRSRPPRLPRPRPRPCHQPRP | -0.0637
RRIRMRPPRLPRPRPRPPMRPRP | 1.62
RRIRLRPPRLPRPRPRPFWDPRP | 0.184
RRIRIRPPRLPRPRPRPILTPRP | -0.854
RRIRFRPPRLPRPRPRPSSCPRP | -0.183
RRIRSRPPRLPRPRPRPIITPRP | -0.507
RRIRDRPPRLPRPRPRPLFFPRP | 0.648
RRIRHRPPRLPRPRPRPGKTPRP | -0.031
RRIRSRPPRLPRPRPRPARCPRP | 0.114
RRIRPRPPRLPRPRPRPGIAPRP | 0.218
RRIRQRPPRLPRPRPRPHPEPRP | 0.0615
RRIRIRPPRLPRPRPRPSKNPRP | -0.76
RRIRVRPPRLPRPRPRPQSNPRP | -0.394
RRIRSRPPRLPRPRPRPYAFPRP | -0.487

Sequence | shrunken log2 fold change
RRIRERPPRLPRPRPRPEGFPRP | -0.00351
RRIRLRPPRLPRPRPRPQVKPRP | -0.319
RRIRLRPPRLPRPRPRPHRTPRP | -0.0946
RRIRNRPPRLPRPRPRPDQRPRP | 0.021
RRIRIRPPRLPRPRPRPMSKPRP | -0.332
RRIRLRPPRLPRPRPRPEMAPRP | 0.113
RRIRFRPPRLPRPRPRPATAPRP | 0.106
RRIRWRPPRLPRPRPRPYCVPRP | -0.521
RRIRLRPPRLPRPRPRPNTNPRP | -0.576
RRIRARPPRLPRPRPRPSNWPRP | 0.253
RRIRHRPPRLPRPRPRPLDYPRP | -0.0824
RRIRIRPPRLPRPRPRPQIRPRP | -0.64
RRIRDRPPRLPRPRPRPDIFPRP | 0.171
RRIRMRPPRLPRPRPRPPTLPRP | 0.256
RRIRTRPPRLPRPRPRPRRCPRP | 0.0091
RRIRNRPPRLPRPRPRPERLPRP | 0.0695
RRIRMRPPRLPRPRPRPKGAPRP | 1.76
RRIRNRPPRLPRPRPRPRCFPRP | -0.404
RRIRSRPPRLPRPRPRPISWPRP | -0.186
RRIRLRPPRLPRPRPRPSFLPRP | -0.562
RRIRWRPPRLPRPRPRPILTPRP | 0.00604
RRIRNRPPRLPRPRPRPYLLPRP | -0.27
RRIRARPPRLPRPRPRPPDAPRP | 1.25
RRIRIRPPRLPRPRPRPATVPRP | -0.319
RRIRQRPPRLPRPRPRPVWCPRP | 0.0608

Sequence | shrunken log2 fold change
RRIRLRPPRLPRPRPRPHLVPRP | 0.0694
RRIRCRPPRLPRPRPRPQYLPRP | -0.964
RRIRFRPPRLPRPRPRPHTAPRP | -0.337
RRIRARPPRLPRPRPRPQLTPRP | 0.179
RRIRTRPPRLPRPRPRPPALPRP | 0.311
RRIRTRPPRLPRPRPRPDEAPRP | -0.0661
RRIRMRPPRLPRPRPRPGWVPRP | 0.0878
RRIRCRPPRLPRPRPRPGCLPRP | 0.115
RRIRPRPPRLPRPRPRPFEWPRP | -0.124
RRIRMRPPRLPRPRPRPRHWPRP | 0.477
RRIRKRPPRLPRPRPRPSPVPRP | 0.191
RRIRPRPPRLPRPRPRPVENPRP | 0.243
RRIRYRPPRLPRPRPRPIVRPRP | -0.0319
RRIRDRPPRLPRPRPRPEAQPRP | 1.66
RRIRLRPPRLPRPRPRPEEDPRP | -0.00133
RRIRERPPRLPRPRPRPGSQPRP | -0.196
RRIRYRPPRLPRPRPRPQLNPRP | -1.15
RRIRTRPPRLPRPRPRPQQHPRP | -0.37
RRIRQRPPRLPRPRPRPKFLPRP | -0.157
RRIRPRPPRLPRPRPRPHINPRP | -1.16
RRIRDRPPRLPRPRPRPQQIPRP | -0.148
RRIRHRPPRLPRPRPRPMHQPRP | -0.108
RRIRKRPPRLPRPRPRPRVSPRP | 0.198
RRIRTRPPRLPRPRPRPLQGPRP | 0.12
RRIRRRPPRLPRPRPRPPNRPRP | 0.4
